Measured values published in paper PMC10482915, “Hornerin mediates phosphorylation of the polo-box domain in Plk1 by Chk1 to induce death in mitosis” (Cell Death and Differentiation, 2023).

Molecular target: T1, His-Plk1 WT (human, UniProt P53350 1-603)
T1 construct: polo-like kinase 1 (Plk1), human; PCR product of the human Plk1 gene cloned into pET-28a; also called recombinant His-Plk1; His6-tagged Plk1 WT; source: E. coli BL21 DE3, purified (Ni2+-NTA-agarose)
Experiment: pull-down; recombinant Chk1 incubated with recombinant His-Plk1, pulled down with Ni-beads; immunoblotting
Conditions: both partners purified

T1 sequence (P53350 whole entry): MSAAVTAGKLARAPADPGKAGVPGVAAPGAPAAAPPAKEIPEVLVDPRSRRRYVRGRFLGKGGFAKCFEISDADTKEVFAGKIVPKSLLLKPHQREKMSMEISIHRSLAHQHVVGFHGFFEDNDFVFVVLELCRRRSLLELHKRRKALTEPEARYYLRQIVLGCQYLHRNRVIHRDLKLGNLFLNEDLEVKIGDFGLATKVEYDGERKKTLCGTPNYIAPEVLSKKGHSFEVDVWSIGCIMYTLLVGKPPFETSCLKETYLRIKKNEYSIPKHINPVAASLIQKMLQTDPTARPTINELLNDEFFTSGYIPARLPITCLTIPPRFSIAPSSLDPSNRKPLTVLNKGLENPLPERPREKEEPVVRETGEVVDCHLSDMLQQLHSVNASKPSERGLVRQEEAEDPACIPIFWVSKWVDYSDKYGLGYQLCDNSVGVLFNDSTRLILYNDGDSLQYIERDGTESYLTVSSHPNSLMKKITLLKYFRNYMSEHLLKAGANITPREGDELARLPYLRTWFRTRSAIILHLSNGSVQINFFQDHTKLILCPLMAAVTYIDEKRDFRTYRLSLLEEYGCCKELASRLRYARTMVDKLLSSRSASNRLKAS

binding result: binds
B1: recombinant Chk1 (enzyme, human, UniProt O14757 1-476, looked up)
chain: MAVPFVEDWDLVQTLGEGAYGEVQLAVNRVTEEAVAVKIVDMKRAVDCPENIKKEICINKMLNHENVVKFYGHRREGNIQYLFLEYCSGGELFDRIEPDIGMPEPDAQRFFHQLMAGVVYLHGIGITHRDIKPENLLLDERDNLKISDFGLATVFRYNNRERLLNKMCGTLPYVAPELLKRREFHAEPVDVWSCGIVLTAMLAGELPWDQPSDSCQEYSDWKEKKTYLNPWKKIDSAPLALLHKILVENPSARITIPDIKKDRWYNKPLKKGAKRPRVTSGGVSESPSGFSKHIQSNLDFSPVNSASSEENVKYSSSQPEPRTGLSLWDTSPSYIDKLVQGISFSQPTCPDHMLLNSQLLGTPGSSQNPWQRLVKRMTRFFTKLDADKSYQCLKETCEKLGYQWKKSCMNQVTISTTDRRNNKLIFKVNLLEMDDKILVDFRLSKGDGLEFKRHFLKIKGKLIDIVSSQKIWLPAT
notes: checkpoint kinase 1 (Chk1), human recombinant kinase; the SignalChem kinase is named only for the kinase assay; also called human recombinant Chk1 kinase; checkpoint kinase 1; source: bought: SignalChem (named for the kinase assay)
